According to the supplement of paper PMC9170038:

System: MS2 coat protein
Test: apparent KD of MS2 coat protein; higher = weaker reporter binding
Conditions: Eterna round: R107
Procedure, shortened: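 Apparent KD stands for the median, per design, of fits to normalised cluster binding curves. The curves came from titrating on-chip-transcribed RNA switches on Illumina sequencing clusters with SNAP-549-labelled MS2 coat protein, twofold from 0.7 or 1.5 nM to 3 µM. Buffer was 100 mM Tris-HCl pH 7.5, 80 mM KCl, 4 mM MgCl2, without or with constant ligand.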

[1] = input ligand: theophylline 20 uM
[2] = input ligand: tryptophan 2.4 mM
[3] = input ligand: theophylline 2 mM

Sequence | apparent KD of MS2 coat protein (input ligand: arginine 13.2 mM) [nM] | apparent KD of MS2 coat protein [1] [nM] | apparent KD of MS2 coat protein [2] [nM] | apparent KD of MS2 coat protein [3] [nM] | apparent KD of MS2 coat protein (input ligand: none) [nM]
GAUACCAUGAUCCUCCUGGUAUCGGCUGAUACCAGCCAGCUGACUGGCCCUUGGCAGCAGCAUACAUGAGGAUCACCCAUGUUAA [(T)''-(M)'-(T)'-(Theo)-(Ms2)_Design4] | 35.4 | 163 | 61 |  | 
GAUAGUUGAUGGGAUACCAGCCUACACAUGAGGAUCACCCAUGUGAUUCGUGUACGACUGGGCCCUUGGCAGCCCAUAUUGUGUA [#12 Same State - Theophylline B] | 46.1 | 202 | 128 |  | 
GAUAUACGUGCGGCCGCCACUGAGUGGCGGGCGUGUCGAGUUACAUGAGGAUCACCCAUGUCACUCAGGACCGGGCACGGAAUUU [Soveri] | 7.64 | 14.1 |  | 11 | 
GAUAUAUAACGAAGGAGCGGCCCUUGAUCCUCAUGAGACAUGAGGAUCACCCAUGUCUCGGGCCAGGUAGGUCGCGUUAUAUAUC [Astros-omei-mod] | 26.6 | 31.4 | 24.4 | 27.9 | 21.5
GAUAUGAUAAGAAGGAGCGUCGAAAAUGGGUAAACAUGAGGAUCACCCAUGUAAAGGGAACGACAGGUAGGUCGCUUAUUAUAUC [AstromonsSSArgB#19] | 146 | 190 | 134 | 251 | 160
GAUCGAAAUAACGUCUAGGAAAACUAGACGCGAGGACCGGUACGGCCGCCACUCGGGUGGCACAUGAGGAUCACCCAUGUAGAUC [#SwitchBubble 5 #GuTurnoff #MS2 3'] | 69.4 | 110 |  | 100 | 
GAUGAACUAUAUGAUACCAGACAACAUGAGGAUCACCCAUGUGAUAGUCGUCCUCUGCCUGUCCCUUGGCAGCGUAUAGUUUAUC [XTheo B #19] | 30.7 | 74.7 | 21.2 |  | 
GAUGAACUAUAUGAUACCAGACAACAUGAGGAUCACCCAUGUGUAUGUCGUCCUCUGCCUGUCCCUUGGCAGCGUAUAGUUUAUC [XTheo B #17] | 36.8 | 70.1 | 16.1 |  | 
GAUGAACUAUUUGAUACCAGACAACAUGAGGAUCACCCAUGUGCGCGUCGUCCUCUGCCUGUCCCUUGGCAGCGGAUAGUUUAUC [XTheo B #12] | 32.5 | 124 | 34.9 |  | 
GAUGAUAUUGCAGAUACCAGACACAUGAGGAUCACCCAUGUCGUUGGGUCGCUGGGUCGUGUCCCUUGGCAGCUGCGAUAUCAUC [#04 Exclusion-TheophyllineB] | 28 | 52.6 | 31 |  | 
GAUUAAACAUGAGGAUCACCCAUGUAUAUACGAGGACCGGUACGGCCGCCACUCGUAAACGAGUAUCCUCGAAUAAACAUGAUAA [AK 2.1 SS Trypt (A)] | 44 | 113 |  | 182 | 
GAUUACAUGAGGAUCACCCAUGUAACUGAAGGAGCGGUAAUAAAGCCAGGUAGGUCGCGGAACAACAUGUGGAUCACCCAUGUAA [#13 Exclusion - Arginine A] | 33.7 | 51.6 | 32.7 | 43.7 | 43.5
GCACAAGAUGGAAGGAGCGCUGGUAAAAGUCACAUGAGGAUCACCCAUGUGCUCCUUGCCGAGCAGGUAGGUCGCCAUCUUGUGC [SSAB NP+V+V2 #4] | 19.5 | 31.8 | 29.8 | 33.2 | 27.8
GCACAUGAGGAUCACCCAUGUACAACUGAAGGAGCGAGACAGAACUCAGGUAGGUCGCAGACUGCACAAUUGCGGACGACAUGGG [Exclusion Arginine A GF21] | 25.8 | 44.1 | 30.1 | 40.9 | 34.2
GCACCAGGUACGGAUACCAGAGCAAGCCAAAUGAGUGAACUUGAGGAUCACCCAAGUUUGCUCCCUUGGCAGCCGUACCUGGUGC [ETB NP+V+V2 #12 Diff Apt, +-Same Structure] | 7.29 | 11.4 | 8.49 | 29.2 | 9.39
GCACUACAUGAGGAUCACCCAUGUGCAGAUACCAGAGGUGUAUGCCUCCCUUGGCAGCUGAGUAGGUCUGGAGGGCUAUUGGUUU [Same State Theophylline A GF14] | 17.8 | 27.8 | 18.2 |  | 
